According to the nanobody polyreactivity screen of Harvey et al. (2022):

Test: yeast display, Sf9 membrane polyspecificity reagent, FACS + sequencing; frameworks hold sequencing errors
Procedure, shortened: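 Genes from sorted yeast were amplified by colony PCR, read by MiSeq 2 × 250 sequencing and filtered on CDR length. These cells carried a synthetic nanobody library in Saccharomyces cerevisiae BJ5465 and were sorted by FACS into low and high (top ~1%) gates on anti-HA and streptavidin fluorescence. Polyreactivity is labelled according to the gate of origin.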

Sequence	polyreactivity (PSR sort gate)
QVQLVESGGGLVQAGGSLRLSCAASGSIFDFYAMGWYRQAPGKERELVAAINRGGSTYYADSVKGRFTISRDNAKNTVYLQMNSLKPEDTAVYYCAASYFYWRANRGPRYYWGQGTQVTVSS	high polyreactivity
QVQLVESGGGLVQAGGSLRLSCAASGRTFGWYTMGRYRQAPGKERELVAGISSSGGSTYYADSVKGRFTISRDNAKNTVYLQMNSLKPEDTAVYYCARETYPHGLYYRPYDYWGQGTQVTVSS	low polyreactivity
QVQLVESGGGLVQAGGSLRLSCAASGFIFGYNAMGWYRQAPGKERELVAALDSGDSTYYADSVKGRFTLSRDNAKNTVYLQMNSLKPEDTAVYYCATDVTFVYDFGYFQFDYWGQGTQVTVSS	low polyreactivity
QVQLVESGGGLVQAGGSLRLSCAASGSTLYGYAMGWSRQAPGKERELVAAISDSGGNTYYADSVKGRFTISRDNAKNTGYLQMNSLKPEDTAVYYCAAEDIVFPYDYWGQGTQVTVSS	low polyreactivity
QVQLVESGGGLVQAGGSLRLSCAASGSIFVHYAMGGYRQAPGKERELVAAISQRGGSTSYADSVKGRFTISRDNAKNTVYLQMNSLKPEDTAVYYCAAENWIGDYYWGQGTQVTVSS	low polyreactivity
QVQLVESGGGLVKAGGSLGLSCAASGRTLRYYAMGWYRQAPRKERELVASISIGGSTYYADSVKGRFTISRDNAKNTVYLQMNSLKPEDTAVYYCATDYSNSGYGYWGQCTQVTVSS	low polyreactivity
QVQLVESGGGLLQAGGSLRLSCAASGRIFGGYDMGWYRQAPGKERELVASISYSGGTTYYADSVKGRFTISRDNAKNTVYLQMNSLKPEDSAVYYCAALSQHNDSGYDYWGQGTQVTVSS	high polyreactivity
QVQLVESGGGLVQAGGSLRLSCAASGRTFPYYAMGWYRQAPGKERELVAAISSSGGRTYYADSVKGRFTISRDNAKNTVYLQMISLKPEDSAVYDCNVDAWYPYQGFLVGYYYWGQGTQVTVSS	low polyreactivity
QVQLVESGGGLVQAGGSLRLSCAASGRILSYYAMGWYRQAPGKETELVATISASGGSTYYADSVKGRFTISRDNAKNTVYLQMNSLKPEDTAVYYCAAARVPAYYLRYLYRTTYDYWGQGTQVTVSS	high polyreactivity
QVQLVESGGGLVQAGGSLRLSCAASGSNFRANAMGWYRQATGKERELVAAISKSGGSTYYADSVKGRFRISRDNAKNTVYLQMNSLKPEDTGVYYCAARTTYLYGMYYWGQGTQVTVSS	low polyreactivity
QVQLVESGGGLVQAGGSLRLSCAASGRILQYNVMGWYRQAPGKERELVATISSGGTTNYADSVKGRFTISRDNAKNTVYLQMNSLKPEDTAVYYCAAGLPRKRVQYDYWGQGTQVTVSS	low polyreactivity
QVQLVESGGGIVQACGSLRLSCAASGFTFYVYAMGWYRKAPGKEREFVAAISKSGGRTYYADSVMGRFTISRDNAKNTVYLQMNSLKPEDTAVYYCGRYNRYQIIYPGFDYWGQGTQVTVSS	high polyreactivity
QVQLVESGGGLVQAGGSLRLSCAASGLIFFQNAMGWYRQAPGKERELVAAITWSGGRTYYADSVKGRFTISRDNAKNTVYLQMKSLKPEDTEVYYCAADYDYPDYYAPSWPGYNYWGQGTQVTVSS	low polyreactivity
QVQLVESGGGLVQAGGSLRLSCAASGSIFRYYAMGWYRQAPGKERELVAAITGRGGSTYYADSVKGRFTISRDNAKNTVYLQMNSLKPEDTAVYYCADYIDANVHRFDYWGQGTQVTVSS	low polyreactivity
QVQLVESGGGLVQAGGSLRLSCAASGSIFYSNAMGWYRQAPGKEREFVAAISAGGGSTYYADSVKGRFTISRDNAKNTVYLQMNSLKPEDTAVYYCAATDEYYIQVWFPYDYWGQGTQVTVSW	low polyreactivity
QVQLVESGGGLVQAGGSLRLSCAASGRTFRVYAMGWYRQAPGKEREFVAAISYSGGRTYYADSVKGRFTISRDNAKNTVYLQMNSLKPEDTAVYYCAAKTNRGSYSYDYWGQGTQVTVSS	high polyreactivity
QVQLVESGGGLVQAGGSLRLSCAASGSTFYIYAMGWYRQAPGKEREFVAAISRTGGSTYYADSVKGRFTISRDNAKNTVYLQMNSLKPEDTAVYYCAAEYKGFRGRYDYWGQGTQVTVSS	high polyreactivity
QVQLVESGGGLVQAGGSLRLSCAASGGTFKFFAMGLYRQAPGKERELVAAITSGGSTNYADSVKGRFTISRDNAKNTVYLQMNRLKPEDTAVYYCAVDSLPNSPYDYWGQGTQVTVSS	low polyreactivity
QVQLVESGGGLVQAGGSLRLSCAASGYIFHRYVMGWYRQAPGKERELVASISWSGGSTYYADSVKGRFTISRDNAKNTVYLQMTSLKPEDTAVYYCGALSPYRRGYYWGQGTQVTVSS	high polyreactivity
QVQLVESGGGLVQAGGSLRLSCAASGSIVVHNAMGWYRQAPGKERELVAAITWSGGSTYYADSVKGRFTISRDNAKNTVYLQMNSLKPVDTAVYYCAAEDVAAQWAYESPTSYWYYYWGQGTQVTVSS	low polyreactivity
QVQLVESGVGLVQAGGSLSLSCAASGFTISLNTMGWYRQAPGKERELVAAITYSGTRTYYADSVKGRFTISRDNAKNTVDLQMNRLKPEDTAVYYCAARHGQSWQWLEYDYWGQGTQVTVSS	low polyreactivity
QVQLVESGGGLVQAGGSLRLSCAASGRIFRRYALGWYRQAPGKERELGAAITRSGGSTYYADSVKGRFTISRDNAKNTVYLQMNSLNPEDTAVYYCYAPSSLGTDYDYWGQGTQVTVSS	high polyreactivity

Sequence	polyreactivity (PSR sort gate)
QVQLVESGGGLVQAGGSLRLSCAASGRTFGLYAMGWYRQAPGKERELVAAISSGDSTNYADSVKGRFTISRDNAKNTVYLQMNSLKPEDTAVYYCAAAQQRWWQWYYYWGQGTQVTVSS	high polyreactivity
QVQLVESGGGLVQAGGSLRLSCAASGITYYRNAMGWYRQAPGKERELVAAISWSGGRTYYADSVKGRFTISRDNAKNTVYLQMNSLKPEDTAVYYCNKYTHYYDYDYWGQGTQVTVSS	high polyreactivity
QVQLVESGGGLVQAGGSLRLSCAASGFTFSAYAIGWYRQAPGKETELVAAITLRGGSTYYADSVKGRFTISRDNAKNTVYLQMNSLNPEDTAVYYCAAERIYVAYDYWGQGTQLTVSS	low polyreactivity
QVQLVESGGGLVQAGGSLRLSCAASGFTFGSNAMGWYRQAPGKERELVADITVSGGSTYYADSVKGRFTISRDNAKNTVYLQMNSLKPEDTAVYYCAKDPRTYLDYDYWGQGTQVNVSS	low polyreactivity
QVQLVESGGALVQAGGSLRLSCAASGLIFTAYAMGWYRQAPGKERELVAAIDWRGGSTSYADSVKGRFTISRDTAKNTVYLQMNSLKPEDTAVYYCAADYYSKYVRFGYWGQGTQVTVSS	high polyreactivity
QVQLVESGGGLVQAGGSLRLSCAASGSMFITYTMGWYRQAPGKERELVAAITWDGGSTYYADSVKGRFTISRDNAKNTVYLQMNSLKPEDTAVYYCAKDVILVWPYATGRDYWGQGTQVTVSS	low polyreactivity
QVQLVESGGGLVQAGGSLRLSCAASGSTFTSYVMGWYRQAPGKERELVAAISSSGTRTYYADSVKGRFTISRDNAKNTVYLQMNSLKPEDTSVYYCAARGGAPYRIFKDDYWGQATQVTVSS	high polyreactivity
QVQLVESGGGLVQAGGSLRLSCAASGRIFKGYSMGGYRQAPGTETELVASIRTGGTTNYADSVKGRFTISRDNAKNTVYLQMNSLKPEDTAVYYCNRGYYSYYGRYYYWGQGTQVTVSS	high polyreactivity
QVQLVESGGGLVQAGGSLRLSCAASGRLFKIYAMGWYRQAPGKERELVATISSGGRTNYADSVKGRFTISRDNAKNTVYLQMNSLKPEDTAVYYCNAGARVLYETESFDYWGQGIQVTVSS	low polyreactivity
QVQLVESGGGLVQAGGSLRLSCAASVSTFRWYAMGWYRQAPGKERELVAAISWSGSTTYYADSVKGRFTISRDNAKNTVYLQMNSLKPEDTAVYYCAAEVVFFGWNYDYWGQGTQVTVSS	high polyreactivity
QVQLVESGGGLVQAGGSLRLTCAASGRIFTGNSMGWYRQAPGQERELVAAITRRGGNTYYADSVKGRFTISRDNAKNTVYLQMNSLKPEDTAVYSCARDRPGDYAGYDYWGQGTQVTVSS	low polyreactivity
QVQLVESGGGLVQAGGSLRLSCAASGSIFGANAMGWYRQAPGKERELVAAISTRGGRTYYADSVKARFTISRDNAKNTVSLQMNSLKPEDTALYYCAARRFSKVRSMYYWRQGTQVTVSS	high polyreactivity
QVQLVESGGGLVQAGGSLRLSCAASGSTFSEKAMGWYRQAPGKERELVAAISRRGGSTYYADSVKGRFTISRDNAKNTVYYQMNSLKPEDTAVYYCNVVNSGSFDYDYWGQGTPVTVSS	high polyreactivity
QVQLVESGGGLVQAGGSLRLSCAASGRILVRYAMGWYRQAPGKERELVAAISSSGSSTYYADSVKGRFTISRYNAKNTVYLQMNSLKPEDTAVYYCAADWEYVFYEYGYWGQGTQVTVSS	low polyreactivity
QVQLVESGGGLVQAGGSLRLSCAASGLTFYYYAMGWYRQAPGKERELVAAISATGGRTDYADSVKGRFTISRDNAKNTVYLQMNSLKPADPAVYYCAADTPYLRRRRGMDYWGQGTQVTVSS	high polyreactivity
QVQLVESGGGLVQAGGSLRLSCAASGFIFYFYAMGWYRQAPGKERELVAAISWSGGSTYYADSVKGRFTISRDNAKNTDYLQMNSLKPEDTAVYYCAAQSWSGDSTFWRYDYWGQGTQVTVSS	low polyreactivity
QVQLVESGGGLVQAGGTLRLSCAASGSIFGNYAMGWDRQAPGKERELVAGISKSGGRTYYADSVKGRFTISRDNAKNTVYLQMNSLKPEDTAVYYCNALVTRYQSLDRLGDYWGQGTQVTVSS	high polyreactivity
QVQRVESGGGLVQAGGSLRLSCAASGFIFEGNAMGWYRQAPGKERELVAAISWSGGRTFYADSVKGRFTISRDHAKNTVYLQMNSLKPEDTAVYYCAAQGRRYGYGDFYYWGQGTQVTVSS	high polyreactivity
QVQLVESGGGLVQAGGSLRLSCAASGRTFYWNTMGWYRQAPGKERELVAAINYSGGSTYYADSVKGRFTISRDNAKNTVYLQMNSLKPEDTAVYYCAAYFHGYKSQHRARSEYNYWGQGTQVTVSS	high polyreactivity
QVQLVESGGGLVQAGGSLRLSCAASGSNFTSYAMGWYRQAPGKERELVAAISKSGGSTYYADSVKGRFTISRDNAKNTVYLQMNSLKPEDTAVFYCAARYNVRSYTTSRFDYWGQGTQVTVSS	low polyreactivity
QVQLVESGGGLVQAGGSLRLSCAASGLIFSTYAMGWYRQAPGKERELVASISSSGGSTYYADSVKGRFTISRDNAKNTVYLQMNSLKPEDTAVYYCAAVTKRYQPTYYITYGYWGQGTQVTVSS	high polyreactivity
